In paper PMC2654718 (Biochemistry, 2009):
Ends that are not written are not given here.

Biological target: MBP-VDR-LBDmt (human)
Assay: fluorescence polarisation

C(Texas Red maleimide)AASKHKQLSELLRSGSSPN [P300 peptide, Texas Red labeled]
Kd: > 20 µM

C(Texas Red maleimide)KVSQNPILTSLLQITGNGG [DRIP205-1 peptide, Texas Red labeled]
Kd: > 20 µM

C(Texas Red maleimide)QAANNSLLLHLLKSQTIPK [RIP140-5 peptide, Texas Red labeled]
Kd: < 20 µM
